Laboratory results from patent US20210284725A1 (Genentech, published 2021).

T1: human IL-33 (His-tagged) (human, UniProt O95760 112-270, limits assumed)
T1 construct: not shown: His tag
T1 sequence (looked up): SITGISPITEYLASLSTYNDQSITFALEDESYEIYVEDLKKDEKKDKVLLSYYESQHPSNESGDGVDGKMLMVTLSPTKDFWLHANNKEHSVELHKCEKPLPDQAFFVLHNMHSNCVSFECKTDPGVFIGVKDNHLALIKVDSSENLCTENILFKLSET

T2: human IL-33 (human, UniProt O95760 112-270, limits assumed)
T2 sequence (looked up): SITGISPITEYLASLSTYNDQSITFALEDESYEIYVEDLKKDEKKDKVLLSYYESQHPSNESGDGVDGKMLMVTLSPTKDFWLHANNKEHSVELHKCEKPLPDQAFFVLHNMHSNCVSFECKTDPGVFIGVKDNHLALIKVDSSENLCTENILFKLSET


What was measured:
human IL-33 (His-tagged) = target: T1, human IL-33 (His-tagged); test: SPR Biacore T200, IgG captured on protein A chip, His-tagged human IL-33 analyte, 25 C, n=2; column head prints 'KD (nM)' but the E-notation cells are in M, unit corrected to M
Protocol: A protein A sensorchip (GE Healthcare) was used following manufacturer provided protocols to capture humanized anti-IL-33 antibodies using a BIACORE® T200 instrument (GE). Antibody binding was measured to human IL-33 (His-tagged) using multi-cycle kinetics. Sensorgrams for binding of IL-33 were recorded using an injection time of 2 min with a flow rate of 30 μl/min, at a temperature of 25° C., and with a running buffer of 10 mM HEPES, pH 7.4, 150 mM NaCl, 3 mM EDTA, and 0.005% TWEEN620. After injection, disassociation of IL-33 from the antibody was monitored for 10 min in running buffer. The surface was regenerated between binding cycles with a 30 μl injection of 10 mM Glycine HCl pH 1.5. After subtraction of a blank which contained running buffer only, sensorgrams observed for cytokine binding to anti-IL-33 antibody were analyzed using a 1:1 Langmuir binding model with software supplied by the manufacturer to calculate the kinetics and binding constants.

human IL-33 = target: T2, human IL-33; test: cell-based or functional assay

| Binder | Kd (human IL-33 (His-tagged)) | IC50 (M), IL-33 neutralization activity, HEK-BLUE IL-33 cells, human IL-33 at 160 pM (human IL-33) |
| --- | --- | --- |
| 1E1v13 (antibody, human IgG1, V domains shown, Humanized 1E1 variant, human IgG1 backbone, expressed in Expi293F) VH: EVQLVESGGGLVQPGGSLRLSCAASGFTFNNYWMTWVRQAPGKGLEWIASITYTGGGTYYPDSVKGRFTISRDDAKSSLYLQMNSLRAEDTAVYYCTRANYYYNTYGGFPYWGQGTLVTVSS VL: DIQMTQSPSSLSASVGDRVTITCLASEGFSNDLAWYQQKPGKAPKSLIYAASRLQDGVPSRFSGSGSGTDFTLTISSLQPEDFATYFCQQGSKYPLTFGGGTKVEIK | 0.14 nM | 2.98e-11 M |
| 1E1v19 (antibody, human IgG1, V domains shown, Humanized 1E1 variant, human IgG1 backbone, expressed in Expi293F) VH: EVQLVESGGGLVQPGGSLRLSCAASGFTFNNYWMTWIRQAPGKGLEWIASITYTGGGTYYPDSVKGRFTISRDDAKSSLYLQMNSLRAEDTAVYYCTRANYYYNTYGGFPYWGQGTLVTVSS VL: DIQMTQSPSSLSASVGDRVTITCLASEGFSNDLAWYQQKPGKAPKSLIYAASRLQDGVPSRFSGSGSGTDFTLTISSLQPEDFATYYCQQGSKYPLTFGGGTKVEIK | 0.132 nM | 3.19e-11 M |

Results, then the binder that gave them:

| Kd (human IL-33 (His-tagged)) | IC50 (M), IL-33 neutralization activity, HEK-BLUE IL-33 cells, human IL-33 at 160 pM (human IL-33) | Binder |
| --- | --- | --- |
| 0.148 nM | 2.9e-11 M | ch1E1 (antibody, V domains shown) VH: EVQLVESGGGLVQPGTSLKLSCLASGFTFNNYWMTWIRQAPGKGLEWIASITYTGGGTYYPDSVKGRFTISRDDAKSTLYLQMNSLRSEDTATYYCTRANYYYNTYGGFPYWGQGTLVTVSS VL: DIQMTQSPASLSASLGETVSIECLASEGFSNDLAWYQQKSGKSPQLLIYAASRLQDGVPSRFSGSGSGTRFSLKISGMQPEDEADYFCQQGSKYPLTFGSGTKLEIKR |
| 0.155 nM | 3.1e-11 M | 1E1v21 (antibody, human IgG1, V domains shown, Humanized 1E1 variant, human IgG1 backbone, expressed in Expi293F) VH: EVQLVESGGGLVQPGGSLRLSCAASGFTFNNYWMTWVRQAPGKGLEWVASITYTGGGTYYPDSVKGRFTISRDDAKNSLYLQMNSLRAEDTAVYYCTRANYYYNTYGGFPYWGQGTLVTVSS VL: DIQMTQSPSSLSASVGDRVTITCLASEGFSNDLAWYQQKPGKAPKSLIYAASRLQDGVPSRFSGSGSGTDFTLTISSLQPEDFATYYCQQGSKYPLTFGGGTKVEIK |
| 0.128 nM | 3.44e-11 M | 1E1v20 (antibody, human IgG1, V domains shown, Humanized 1E1 variant, human IgG1 backbone, expressed in Expi293F) VH: EVQLVESGGGLVQPGGSLRLSCAASGFTFNNYWMTWVRQAPGKGLEWVASITYTGGGTYYPDSVKGRFTISRDDAKSSLYLQMNSLRAEDTAVYYCTRANYYYNTYGGFPYWGQGTLVTVSS VL: DIQMTQSPSSLSASVGDRVTITCLASEGFSNDLAWYQQKPGKAPKSLIYAASRLQDGVPSRFSGSGSGTDFTLTISSLQPEDFATYYCQQGSKYPLTFGGGTKVEIK |
